Test results as given in patent US20210179693A1 (Xencor, published 2021).

Biological target: T1, human FcRn (His-tagged alpha chain with beta 2 microglobulin) (human, UniProt P55899 24-297; P61769 21-119, limits assumed)
T1 construct: also called hFcRn; not shown: His tag
Test: Biacore, human FcRn on chip, pH 6.0

T1 sequence (P55899 24-297 limits assumed, chain 1 of 2): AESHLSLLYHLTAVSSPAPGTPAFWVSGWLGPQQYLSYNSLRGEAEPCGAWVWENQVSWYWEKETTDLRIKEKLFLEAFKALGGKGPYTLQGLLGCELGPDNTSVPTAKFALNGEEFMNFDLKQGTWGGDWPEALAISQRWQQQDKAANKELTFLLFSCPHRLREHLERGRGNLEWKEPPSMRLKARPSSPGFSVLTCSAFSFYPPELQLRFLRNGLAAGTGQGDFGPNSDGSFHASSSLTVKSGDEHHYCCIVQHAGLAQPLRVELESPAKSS
T1 sequence (P61769 21-119 limits assumed, chain 2 of 2): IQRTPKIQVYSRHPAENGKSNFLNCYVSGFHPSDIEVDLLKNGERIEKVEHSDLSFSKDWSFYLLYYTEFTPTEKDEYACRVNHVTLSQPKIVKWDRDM

Binder | fold FcRn binding relative to WT IgG2 | further results
anti-VEGF IgG2 N434S (antibody) heavy: EVQLVESGGGLVQPGGSLRLSCAASGYTFTNYGMNWVRQAPGKGLEWVGWINTYTGEPTYAADFKRRFTFSLDTSKSTAYLQMNSLRAEDTAVYYCAKYPHYYGSSHWYFDVWGQGTLVTVSSASTKGPSVFPLAPCSRSTSESTAALGCLVKDYFPEPVTVSWNSGALTSGVHTFPAVLQSSGLYSLSSVVTVPSSNFGTQTYTCNVDHKPSNTKVDKTVERKCCVECPPCPAPPVAGPSVFLFPPKPKDTLMISRTPEVTCVVVDVSHEDPEVQFNWYVDGVEVHNAKTKPREEQFNSTFRVVSVLTVVHQDWLNGKEYKCKVSNKGLPAPIEKTISKTKGQPREPQVYTLPPSREEMTKNQVSLTCLVKGFYPSDIAVEWESNGQPENNYKTTPPMLDSDGSFFLYSKLTVDKSRWQQGNVFSCSVMHEALHSHYTQKSLSLSPGK light: not shown | – | fold FcRn binding: 4.9 fold
anti-VEGF IgG2 N434V (antibody, also called 434V in IgG2) heavy: EVQLVESGGGLVQPGGSLRLSCAASGYTFTNYGMNWVRQAPGKGLEWVGWINTYTGEPTYAADFKRRFTFSLDTSKSTAYLQMNSLRAEDTAVYYCAKYPHYYGSSHWYFDVWGQGTLVTVSSASTKGPSVFPLAPCSRSTSESTAALGCLVKDYFPEPVTVSWNSGALTSGVHTFPAVLQSSGLYSLSSVVTVPSSNFGTQTYTCNVDHKPSNTKVDKTVERKCCVECPPCPAPPVAGPSVFLFPPKPKDTLMISRTPEVTCVVVDVSHEDPEVQFNWYVDGVEVHNAKTKPREEQFNSTFRVVSVLTVVHQDWLNGKEYKCKVSNKGLPAPIEKTISKTKGQPREPQVYTLPPSREEMTKNQVSLTCLVKGFYPSDIAVEWESNGQPENNYKTTPPMLDSDGSFFLYSKLTVDKSRWQQGNVFSCSVMHEALHVHYTQKSLSLSPGK light: not shown | < 0.5 fold | –
anti-VEGF IgG2 N434R (antibody) heavy: EVQLVESGGGLVQPGGSLRLSCAASGYTFTNYGMNWVRQAPGKGLEWVGWINTYTGEPTYAADFKRRFTFSLDTSKSTAYLQMNSLRAEDTAVYYCAKYPHYYGSSHWYFDVWGQGTLVTVSSASTKGPSVFPLAPCSRSTSESTAALGCLVKDYFPEPVTVSWNSGALTSGVHTFPAVLQSSGLYSLSSVVTVPSSNFGTQTYTCNVDHKPSNTKVDKTVERKCCVECPPCPAPPVAGPSVFLFPPKPKDTLMISRTPEVTCVVVDVSHEDPEVQFNWYVDGVEVHNAKTKPREEQFNSTFRVVSVLTVVHQDWLNGKEYKCKVSNKGLPAPIEKTISKTKGQPREPQVYTLPPSREEMTKNQVSLTCLVKGFYPSDIAVEWESNGQPENNYKTTPPMLDSDGSFFLYSKLTVDKSRWQQGNVFSCSVMHEALHRHYTQKSLSLSPGK light: not shown | < 0.5 fold | –
anti-VEGF IgG2 N434K (antibody) heavy: EVQLVESGGGLVQPGGSLRLSCAASGYTFTNYGMNWVRQAPGKGLEWVGWINTYTGEPTYAADFKRRFTFSLDTSKSTAYLQMNSLRAEDTAVYYCAKYPHYYGSSHWYFDVWGQGTLVTVSSASTKGPSVFPLAPCSRSTSESTAALGCLVKDYFPEPVTVSWNSGALTSGVHTFPAVLQSSGLYSLSSVVTVPSSNFGTQTYTCNVDHKPSNTKVDKTVERKCCVECPPCPAPPVAGPSVFLFPPKPKDTLMISRTPEVTCVVVDVSHEDPEVQFNWYVDGVEVHNAKTKPREEQFNSTFRVVSVLTVVHQDWLNGKEYKCKVSNKGLPAPIEKTISKTKGQPREPQVYTLPPSREEMTKNQVSLTCLVKGFYPSDIAVEWESNGQPENNYKTTPPMLDSDGSFFLYSKLTVDKSRWQQGNVFSCSVMHEALHKHYTQKSLSLSPGK light: not shown | < 0.5 fold | –
anti-VEGF IgG2 N434D (antibody) heavy: EVQLVESGGGLVQPGGSLRLSCAASGYTFTNYGMNWVRQAPGKGLEWVGWINTYTGEPTYAADFKRRFTFSLDTSKSTAYLQMNSLRAEDTAVYYCAKYPHYYGSSHWYFDVWGQGTLVTVSSASTKGPSVFPLAPCSRSTSESTAALGCLVKDYFPEPVTVSWNSGALTSGVHTFPAVLQSSGLYSLSSVVTVPSSNFGTQTYTCNVDHKPSNTKVDKTVERKCCVECPPCPAPPVAGPSVFLFPPKPKDTLMISRTPEVTCVVVDVSHEDPEVQFNWYVDGVEVHNAKTKPREEQFNSTFRVVSVLTVVHQDWLNGKEYKCKVSNKGLPAPIEKTISKTKGQPREPQVYTLPPSREEMTKNQVSLTCLVKGFYPSDIAVEWESNGQPENNYKTTPPMLDSDGSFFLYSKLTVDKSRWQQGNVFSCSVMHEALHDHYTQKSLSLSPGK light: not shown | < 0.5 fold | –
anti-VEGF IgG2 N434E (antibody) heavy: EVQLVESGGGLVQPGGSLRLSCAASGYTFTNYGMNWVRQAPGKGLEWVGWINTYTGEPTYAADFKRRFTFSLDTSKSTAYLQMNSLRAEDTAVYYCAKYPHYYGSSHWYFDVWGQGTLVTVSSASTKGPSVFPLAPCSRSTSESTAALGCLVKDYFPEPVTVSWNSGALTSGVHTFPAVLQSSGLYSLSSVVTVPSSNFGTQTYTCNVDHKPSNTKVDKTVERKCCVECPPCPAPPVAGPSVFLFPPKPKDTLMISRTPEVTCVVVDVSHEDPEVQFNWYVDGVEVHNAKTKPREEQFNSTFRVVSVLTVVHQDWLNGKEYKCKVSNKGLPAPIEKTISKTKGQPREPQVYTLPPSREEMTKNQVSLTCLVKGFYPSDIAVEWESNGQPENNYKTTPPMLDSDGSFFLYSKLTVDKSRWQQGNVFSCSVMHEALHEHYTQKSLSLSPGK light: not shown | < 0.5 fold | –
anti-VEGF IgG2 M428L/N434S (antibody) heavy: EVQLVESGGGLVQPGGSLRLSCAASGYTFTNYGMNWVRQAPGKGLEWVGWINTYTGEPTYAADFKRRFTFSLDTSKSTAYLQMNSLRAEDTAVYYCAKYPHYYGSSHWYFDVWGQGTLVTVSSASTKGPSVFPLAPCSRSTSESTAALGCLVKDYFPEPVTVSWNSGALTSGVHTFPAVLQSSGLYSLSSVVTVPSSNFGTQTYTCNVDHKPSNTKVDKTVERKCCVECPPCPAPPVAGPSVFLFPPKPKDTLMISRTPEVTCVVVDVSHEDPEVQFNWYVDGVEVHNAKTKPREEQFNSTFRVVSVLTVVHQDWLNGKEYKCKVSNKGLPAPIEKTISKTKGQPREPQVYTLPPSREEMTKNQVSLTCLVKGFYPSDIAVEWESNGQPENNYKTTPPMLDSDGSFFLYSKLTVDKSRWQQGNVFSCSVLHEALHSHYTQKSLSLSPGK light: not shown | – | fold FcRn binding: 14.8 fold
anti-VEGF IgG2 N434T (antibody) heavy: EVQLVESGGGLVQPGGSLRLSCAASGYTFTNYGMNWVRQAPGKGLEWVGWINTYTGEPTYAADFKRRFTFSLDTSKSTAYLQMNSLRAEDTAVYYCAKYPHYYGSSHWYFDVWGQGTLVTVSSASTKGPSVFPLAPCSRSTSESTAALGCLVKDYFPEPVTVSWNSGALTSGVHTFPAVLQSSGLYSLSSVVTVPSSNFGTQTYTCNVDHKPSNTKVDKTVERKCCVECPPCPAPPVAGPSVFLFPPKPKDTLMISRTPEVTCVVVDVSHEDPEVQFNWYVDGVEVHNAKTKPREEQFNSTFRVVSVLTVVHQDWLNGKEYKCKVSNKGLPAPIEKTISKTKGQPREPQVYTLPPSREEMTKNQVSLTCLVKGFYPSDIAVEWESNGQPENNYKTTPPMLDSDGSFFLYSKLTVDKSRWQQGNVFSCSVMHEALHTHYTQKSLSLSPGK light: not shown | – | binding result: binds
anti-VEGF IgG2 N434P (antibody) heavy: EVQLVESGGGLVQPGGSLRLSCAASGYTFTNYGMNWVRQAPGKGLEWVGWINTYTGEPTYAADFKRRFTFSLDTSKSTAYLQMNSLRAEDTAVYYCAKYPHYYGSSHWYFDVWGQGTLVTVSSASTKGPSVFPLAPCSRSTSESTAALGCLVKDYFPEPVTVSWNSGALTSGVHTFPAVLQSSGLYSLSSVVTVPSSNFGTQTYTCNVDHKPSNTKVDKTVERKCCVECPPCPAPPVAGPSVFLFPPKPKDTLMISRTPEVTCVVVDVSHEDPEVQFNWYVDGVEVHNAKTKPREEQFNSTFRVVSVLTVVHQDWLNGKEYKCKVSNKGLPAPIEKTISKTKGQPREPQVYTLPPSREEMTKNQVSLTCLVKGFYPSDIAVEWESNGQPENNYKTTPPMLDSDGSFFLYSKLTVDKSRWQQGNVFSCSVMHEALHPHYTQKSLSLSPGK light: not shown | < 0.5 fold | –
